Data: PMC9365671, “Synergistic autoinhibition and activation mechanisms control kinesin-1 motor activity” (Cell reports, 2022)

Columns and labels:
Assay in all cases: quantitative Coomassie blue staining of the co-purified complex; KIF5-mScarlet-StrepII and His-FLAG-KLC1 co-expressed in Sf9, purified on Streptactin XT and by SEC
Settings in all cases: partners not purified
[1] = molecular target: T1, full-length human KIF5B-mScarlet-StrepII (human, UniProt P33176 1-963)
T1 construct: kinesin heavy chain KIF5B, human, cDNA BC126281, full length (aa 1-963); 2x Prescission protease sites lie between KIF5B and mScarlet; also called KIF5B-WT; wild-type KIF5B; source: Sf9 (baculovirus), purified (Streptactin XT, SEC); also co-expressed with KLC1 and co-purified; not shown: mScarlet, C-terminal, kept
T1 sequence (looked up): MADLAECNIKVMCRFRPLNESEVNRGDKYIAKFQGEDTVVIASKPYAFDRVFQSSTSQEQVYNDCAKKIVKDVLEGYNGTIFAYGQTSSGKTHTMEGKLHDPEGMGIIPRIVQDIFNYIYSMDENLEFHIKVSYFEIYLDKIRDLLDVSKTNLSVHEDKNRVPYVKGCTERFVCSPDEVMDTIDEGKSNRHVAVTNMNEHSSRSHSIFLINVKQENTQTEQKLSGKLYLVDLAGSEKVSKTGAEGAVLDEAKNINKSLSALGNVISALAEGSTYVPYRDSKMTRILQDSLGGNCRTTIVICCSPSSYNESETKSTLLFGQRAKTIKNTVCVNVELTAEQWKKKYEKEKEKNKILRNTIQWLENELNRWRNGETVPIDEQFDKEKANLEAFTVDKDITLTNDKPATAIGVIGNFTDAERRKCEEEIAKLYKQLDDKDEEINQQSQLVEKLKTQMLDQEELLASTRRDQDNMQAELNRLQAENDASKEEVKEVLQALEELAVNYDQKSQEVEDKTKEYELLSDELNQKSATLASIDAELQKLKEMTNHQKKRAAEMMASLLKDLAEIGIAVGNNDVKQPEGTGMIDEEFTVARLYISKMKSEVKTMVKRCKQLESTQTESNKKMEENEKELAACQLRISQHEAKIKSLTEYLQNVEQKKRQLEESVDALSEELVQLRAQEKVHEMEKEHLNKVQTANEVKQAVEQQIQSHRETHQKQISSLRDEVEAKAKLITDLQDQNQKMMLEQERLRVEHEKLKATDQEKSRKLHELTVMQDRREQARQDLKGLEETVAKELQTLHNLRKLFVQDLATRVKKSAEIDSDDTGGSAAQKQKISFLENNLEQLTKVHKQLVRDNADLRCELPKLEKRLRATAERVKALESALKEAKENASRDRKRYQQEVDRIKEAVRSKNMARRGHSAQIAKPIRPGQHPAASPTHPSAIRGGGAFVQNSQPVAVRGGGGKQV

[2] = molecular target: T2, full-length human KIF5C-mScarlet-StrepII (human, UniProt O60282 1-957)
T2 construct: kinesin heavy chain KIF5C, human, cDNA BC110287, full length; 2x Prescission protease sites lie between KIF5C and mScarlet; also called KHC; source: Sf9 (baculovirus), purified (Streptactin XT, SEC); also co-expressed with KLC1 and co-purified; not shown: mScarlet, C-terminal, kept
T2 sequence (looked up): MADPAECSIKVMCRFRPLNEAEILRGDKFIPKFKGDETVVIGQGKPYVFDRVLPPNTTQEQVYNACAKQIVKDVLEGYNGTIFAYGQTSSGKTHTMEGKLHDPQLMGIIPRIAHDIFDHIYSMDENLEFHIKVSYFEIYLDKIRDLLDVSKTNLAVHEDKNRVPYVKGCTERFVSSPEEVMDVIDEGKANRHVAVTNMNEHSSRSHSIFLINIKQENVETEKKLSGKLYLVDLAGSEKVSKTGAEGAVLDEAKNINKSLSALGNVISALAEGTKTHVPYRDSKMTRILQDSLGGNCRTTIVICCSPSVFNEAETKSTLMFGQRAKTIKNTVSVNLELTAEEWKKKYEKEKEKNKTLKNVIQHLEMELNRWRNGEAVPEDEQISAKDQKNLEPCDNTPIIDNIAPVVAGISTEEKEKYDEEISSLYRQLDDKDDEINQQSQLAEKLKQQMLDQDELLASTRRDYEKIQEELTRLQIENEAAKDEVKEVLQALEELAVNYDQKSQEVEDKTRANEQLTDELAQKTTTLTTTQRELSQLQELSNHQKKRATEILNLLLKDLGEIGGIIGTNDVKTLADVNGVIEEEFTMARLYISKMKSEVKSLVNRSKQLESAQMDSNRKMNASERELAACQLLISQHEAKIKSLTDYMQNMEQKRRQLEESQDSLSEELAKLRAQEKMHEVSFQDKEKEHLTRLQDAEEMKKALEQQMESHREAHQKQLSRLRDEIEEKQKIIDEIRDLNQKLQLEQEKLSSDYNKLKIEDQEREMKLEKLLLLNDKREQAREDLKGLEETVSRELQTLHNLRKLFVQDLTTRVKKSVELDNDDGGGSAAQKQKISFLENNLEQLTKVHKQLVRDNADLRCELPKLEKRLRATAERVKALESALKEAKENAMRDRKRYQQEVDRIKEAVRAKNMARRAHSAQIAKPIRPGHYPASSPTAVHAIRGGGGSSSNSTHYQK

[3] = molecular target: T3, full-length human KIF5A-mScarlet-StrepII (human, UniProt Q12840 1-1032)
T3 construct: kinesin heavy chain KIF5A, human, cDNA BC146670, full length; 2x Prescission protease sites lie between KIF5A and mScarlet; also called KIF5A dimer; KHC; source: Sf9 (baculovirus), purified (Streptactin XT, SEC); also co-expressed with KLC1 and co-purified; not shown: mScarlet, C-terminal, kept
T3 sequence (looked up): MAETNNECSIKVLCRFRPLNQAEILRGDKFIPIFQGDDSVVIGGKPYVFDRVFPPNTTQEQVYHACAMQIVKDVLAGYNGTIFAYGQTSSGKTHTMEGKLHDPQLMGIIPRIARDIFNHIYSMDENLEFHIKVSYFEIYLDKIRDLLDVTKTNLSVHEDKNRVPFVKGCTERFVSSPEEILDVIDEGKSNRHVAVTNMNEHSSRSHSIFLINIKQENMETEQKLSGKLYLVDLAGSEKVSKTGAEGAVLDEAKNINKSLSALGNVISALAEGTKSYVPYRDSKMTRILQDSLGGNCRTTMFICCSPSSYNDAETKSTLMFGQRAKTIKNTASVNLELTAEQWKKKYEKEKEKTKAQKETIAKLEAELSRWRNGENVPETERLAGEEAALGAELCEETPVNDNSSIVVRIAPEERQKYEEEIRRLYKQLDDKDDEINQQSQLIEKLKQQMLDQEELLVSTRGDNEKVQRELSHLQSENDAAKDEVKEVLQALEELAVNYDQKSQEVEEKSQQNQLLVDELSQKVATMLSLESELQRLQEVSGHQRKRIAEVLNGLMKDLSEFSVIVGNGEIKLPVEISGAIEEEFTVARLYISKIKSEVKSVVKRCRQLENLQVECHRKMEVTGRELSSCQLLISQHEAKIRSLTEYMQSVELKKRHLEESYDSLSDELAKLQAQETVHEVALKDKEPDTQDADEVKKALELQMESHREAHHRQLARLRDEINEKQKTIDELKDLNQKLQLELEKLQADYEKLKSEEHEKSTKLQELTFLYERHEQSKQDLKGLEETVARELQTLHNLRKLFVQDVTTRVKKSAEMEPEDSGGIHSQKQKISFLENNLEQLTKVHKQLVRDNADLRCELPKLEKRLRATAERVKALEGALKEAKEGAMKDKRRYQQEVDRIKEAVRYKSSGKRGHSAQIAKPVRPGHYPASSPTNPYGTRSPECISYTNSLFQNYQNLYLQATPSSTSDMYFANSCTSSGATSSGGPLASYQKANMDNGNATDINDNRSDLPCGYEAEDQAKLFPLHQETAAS

Measured: stoichiometry N

B1: 6xHis-FLAG-human KLC1 (co-expressed with KIF5) (natural protein, UniProt Q07866 1-573, looked up)
chain: MYDNMSTMVYIKEDKLEKLTQDEIISKTKQVIQGLEALKNEHNSILQSLLETLKCLKKDDESNLVEEKSNMIRKSLEMLELGLSEAQVMMALSNHLNAVESEKQKLRAQVRRLCQENQWLRDELANTQQKLQKSEQSVAQLEEEKKHLEFMNQLKKYDDDISPSEDKDTDSTKEPLDDLFPNDEDDPGQGIQQQHSSAAAAAQQGGYEIPARLRTLHNLVIQYASQGRYEVAVPLCKQALEDLEKTSGHDHPDVATMLNILALVYRDQNKYKDAANLLNDALAIREKTLGKDHPAVAATLNNLAVLYGKRGKYKEAEPLCKRALEIREKVLGKDHPDVAKQLNNLALLCQNQGKYEEVEYYYQRALEIYQTKLGPDDPNVAKTKNNLASCYLKQGKFKQAETLYKEILTRAHEREFGSVDDENKPIWMHAEEREECKGKQKDGTSFGEYGGWYKACKVDSPTVTTTLKNLGALYRRQGKFEAAETLEEAAMRSRKQGLDNVHKQRVAEVLNDPENMEKRRSRESLNVDVVKYESGPDGGEEVSMSVEWNGGVSGRASFCGKRQQQQWPGRRHR
notes: kinesin light chain 1, human, cDNA BC008881; also called kinesin light chain; source: Sf9, co-expressed with KIF5 from a multi-gene baculovirus, co-purified (Streptactin XT, SEC)
~0.8 KLC1 per KHC: all assays above
